Laboratory results: patent US20240067696A1 (ZEALAND PHARMA A S, published 2024)
Non-standard residues stand in square brackets, D forms with d. Dab = NCC[C@H](N)C(=O)O; Aib = CC(C)(N)C(=O)O

B1: Compound 39 (peptide)
peptide: H-HS[Dab](Ac)GTFTSDYSKYLD[Aib]ARAEEFVKWLEST-OH
SMILES: CC(=O)NCC[C@H](NC(=O)[C@H](CO)NC(=O)[C@@H](N)Cc1c[nH]cn1)C(=O)NCC(=O)N[C@H](C(=O)N[C@@H](Cc1ccccc1)C(=O)N[C@H](C(=O)N[C@@H](CO)C(=O)N[C@@H](CC(=O)O)C(=O)N[C@@H](Cc1ccc(O)cc1)C(=O)N[C@@H](CO)C(=O)N[C@@H](CCCCN)C(=O)N[C@@H](Cc1ccc(O)cc1)C(=O)N[C@@H](CC(C)C)C(=O)N[C@@H](CC(=O)O)C(=O)NC(C)(C)C(=O)N[C@@H](C)C(=O)N[C@@H](CCCNC(=N)N)C(=O)N[C@@H](C)C(=O)N[C@@H](CCC(=O)O)C(=O)N[C@@H](CCC(=O)O)C(=O)N[C@@H](Cc1ccccc1)C(=O)N[C@H](C(=O)N[C@@H](CCCCN)C(=O)N[C@@H](Cc1c[nH]c2ccccc12)C(=O)N[C@@H](CC(C)C)C(=O)N[C@@H](CCC(=O)O)C(=O)N[C@@H](CO)C(=O)N[C@H](C(=O)O)[C@@H](C)O)C(C)C)[C@@H](C)O)[C@@H](C)O
B2: Compound 38 (peptide)
peptide: H-HSHGTFTSDYSKYLD[Aib]ARAEEFVKWLEST-NH2
SMILES: CC(C)C[C@H](NC(=O)[C@H](Cc1c[nH]c2ccccc12)NC(=O)[C@H](CCCCN)NC(=O)[C@@H](NC(=O)[C@H](Cc1ccccc1)NC(=O)[C@H](CCC(=O)O)NC(=O)[C@H](CCC(=O)O)NC(=O)[C@H](C)NC(=O)[C@H](CCCNC(=N)N)NC(=O)[C@H](C)NC(=O)C(C)(C)NC(=O)[C@H](CC(=O)O)NC(=O)[C@H](CC(C)C)NC(=O)[C@H](Cc1ccc(O)cc1)NC(=O)[C@H](CCCCN)NC(=O)[C@H](CO)NC(=O)[C@H](Cc1ccc(O)cc1)NC(=O)[C@H](CC(=O)O)NC(=O)[C@H](CO)NC(=O)[C@@H](NC(=O)[C@H](Cc1ccccc1)NC(=O)[C@@H](NC(=O)CNC(=O)[C@H](Cc1c[nH]cn1)NC(=O)[C@H](CO)NC(=O)[C@@H](N)Cc1c[nH]cn1)[C@@H](C)O)[C@@H](C)O)C(C)C)C(=O)N[C@@H](CCC(=O)O)C(=O)N[C@@H](CO)C(=O)N[C@H](C(N)=O)[C@@H](C)O
B3: Compound 40 (peptide)
peptide: H-HS[Dab](Ac)GTFTSDYSKYLD[Aib]ARAEEFVKWLEST-NH2
SMILES: CC(=O)NCC[C@H](NC(=O)[C@H](CO)NC(=O)[C@@H](N)Cc1c[nH]cn1)C(=O)NCC(=O)N[C@H](C(=O)N[C@@H](Cc1ccccc1)C(=O)N[C@H](C(=O)N[C@@H](CO)C(=O)N[C@@H](CC(=O)O)C(=O)N[C@@H](Cc1ccc(O)cc1)C(=O)N[C@@H](CO)C(=O)N[C@@H](CCCCN)C(=O)N[C@@H](Cc1ccc(O)cc1)C(=O)N[C@@H](CC(C)C)C(=O)N[C@@H](CC(=O)O)C(=O)NC(C)(C)C(=O)N[C@@H](C)C(=O)N[C@@H](CCCNC(=N)N)C(=O)N[C@@H](C)C(=O)N[C@@H](CCC(=O)O)C(=O)N[C@@H](CCC(=O)O)C(=O)N[C@@H](Cc1ccccc1)C(=O)N[C@H](C(=O)N[C@@H](CCCCN)C(=O)N[C@@H](Cc1c[nH]c2ccccc12)C(=O)N[C@@H](CC(C)C)C(=O)N[C@@H](CCC(=O)O)C(=O)N[C@@H](CO)C(=O)N[C@H](C(N)=O)[C@@H](C)O)C(C)C)[C@@H](C)O)[C@@H](C)O

What follows are binders tested against human glucagon receptor (human, UniProt P47871 26-477) (assay: cell-based or functional assay).
human glucagon receptor, sequence (P47871 26-477): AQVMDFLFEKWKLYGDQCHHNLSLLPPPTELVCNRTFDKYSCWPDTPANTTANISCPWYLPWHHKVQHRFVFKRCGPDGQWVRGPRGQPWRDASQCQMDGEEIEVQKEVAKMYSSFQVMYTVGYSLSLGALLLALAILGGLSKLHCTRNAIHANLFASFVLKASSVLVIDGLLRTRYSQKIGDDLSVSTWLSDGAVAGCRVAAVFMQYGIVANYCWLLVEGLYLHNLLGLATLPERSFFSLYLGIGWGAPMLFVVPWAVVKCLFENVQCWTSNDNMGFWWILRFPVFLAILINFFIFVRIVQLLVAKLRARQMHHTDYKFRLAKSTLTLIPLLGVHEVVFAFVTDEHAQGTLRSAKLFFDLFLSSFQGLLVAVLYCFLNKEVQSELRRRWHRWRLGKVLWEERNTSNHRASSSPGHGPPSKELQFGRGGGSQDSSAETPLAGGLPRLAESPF

Binder	GCG-R EC50 in vitro [nM] (cAMP, AlphaScreen, HEK293 cells expressing human Glucagon-R)
H-HSQGTFTSDYSKYLDKARAEDFVKWLEST-OH [Compound 3]	0.03
B1	0.0044
B2	0.0047
B3	0.0035
